Literature values in patent US20120082669A1, “HUMAN EPO MIMETIC HINGE CORE MIMETIBODIES, COMPOSITIONS, METHODS AND USES FOR PREVENTING OR TREATING GLUCOSE INTOLERANCE RELATED CONDITIONS OR RENAL DISEASE ASSOCIATED ANEMIA” (priority 2006, published 2012).

Assays:
[1] = tested on: patients with end-stage renal disease; conditions: patients with end-stage renal disease treated with EPO; cited from earlier work
[2] = cited from earlier work
[3] = serum; cited from earlier work
EPO receptor [4] = molecular target: T1, EPO receptor (Homo sapiens, UniProt P19235); conditions: relative to HuEPO; cited from earlier work
T1 sequence (P19235 25-508): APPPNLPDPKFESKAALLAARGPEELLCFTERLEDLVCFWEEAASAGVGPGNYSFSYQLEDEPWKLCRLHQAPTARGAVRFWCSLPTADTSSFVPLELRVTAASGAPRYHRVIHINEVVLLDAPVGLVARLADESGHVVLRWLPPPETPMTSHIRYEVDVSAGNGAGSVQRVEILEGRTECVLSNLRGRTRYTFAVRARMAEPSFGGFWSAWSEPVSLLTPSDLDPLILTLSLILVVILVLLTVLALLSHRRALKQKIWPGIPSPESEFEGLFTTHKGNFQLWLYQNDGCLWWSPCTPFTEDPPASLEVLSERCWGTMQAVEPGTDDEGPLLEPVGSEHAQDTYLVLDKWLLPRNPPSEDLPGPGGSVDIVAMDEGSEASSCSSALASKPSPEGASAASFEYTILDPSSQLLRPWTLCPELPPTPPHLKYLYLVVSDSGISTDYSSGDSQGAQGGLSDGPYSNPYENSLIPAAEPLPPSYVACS

EPO receptor [5] = molecular target: T1, EPO receptor; conditions: cited from earlier work

Substance | blood triglyceride, total cholesterol and LDL levels [1] | insulin resistance [1] | time to peak serum levels ([2]; after subcutaneous administration) | circulating half-life ([2]; intravenously administered, patients with CRF) | time detectable levels of plasma erythropoietin are maintained ([2]; within the therapeutic dose range) | ex-vivo half-life [3] | activity, fold less than HuEPO (EPO receptor [4]) | competition with 125I-labeled EPO for binding to the EPO receptor (EPO receptor [5])
Erythropoietin: glycoprotein hormone of 165 amino acids and four carbohydrate chains, primary regulator of erythropoiesis | concomitant improvement | improve insulin resistance | 5 to 24 h | 3 to 4 h | at least 24 hours |  |  | 
GGTYSCHFGPLTWVCKPQGG [EMP-1] |  |  |  |  |  | 8 h | 10,000 to 100,000 fold | competes
